This is an account of results in publication PMC9462884, “Tensin3 interaction with talin drives the formation of fibronectin-associated fibrillar adhesions” (The Journal of Cell Biology, 2022).

The target in this assay is T1, talin R11 (recombinant wild-type mouse talin1 fragment R11) (mouse, UniProt P26039 1974-2140).
T1 construct: talin1, mouse, R11 rod domain, residues 1,974–2,140; 15N-labelled for the NMR experiments; also called talin R11 domain
Nature of the assay: ITC; 80 µM R11 in the cell, 1.2 mM peptide in the syringe; 20 mM sodium phosphate pH 6.5, 50 mM NaCl, 0.5 mM TCEP, 25°C; single-site binding model. Conditions: both partners purified.

T1 sequence (P26039 1974-2140): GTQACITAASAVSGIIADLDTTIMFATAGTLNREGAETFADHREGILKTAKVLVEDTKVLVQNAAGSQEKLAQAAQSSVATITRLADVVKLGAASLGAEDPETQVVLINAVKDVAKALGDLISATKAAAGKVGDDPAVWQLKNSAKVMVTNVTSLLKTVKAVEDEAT

B1: tensin3 H1 peptide (peptide)
chain: TLDIDQSIEQLNRLILELDPT
modifications: synthetic peptide; terminal capping not stated. Limits conflict in the text: methods give 692-712 (used here, from the peptide purchase description and close to the predicted helix 690-710), results …
What is called Kd is the free concentration of one partner at which half of the binding sites on the other are occupied at equilibrium, for simple one-to-one binding. Take B1: the dissociation constant (Kd) is 17 µM and the dH was determined as 4.8 kcal/mol.
